Changes are numbered by the printed parent chain.
B1: C1.787a: anti-ABCC1 antibody, VH SEQ ID NO: 11, VL SEQ ID NO: 86 (antibody, listed as Rattus norvegicus, V domains shown)
VH: EVQLTESGPGLVQPSQTLSLTCTVSGFSLTSNGVSWVRQPPGKGLEWIAAISSGGSTYYNSAFKSRLSISRHTSKSQVLLNMNSLQTEDTAMYFCARHRGYYWSNWGYFDYWGQGVMVTVSS
VL: NIQLTQSPSLLSASVGDRVTLSCKGSQNINNYLAWYQQKLGEAPKLLIYKTNSLQTGIPSRFSGSGSGTDYTLTLSSLHSEDLATYYCCQYNDGYTFGAGTKLELK
B2: C1.831: anti-ABCC1 antibody, VH SEQ ID NO: 16, VL SEQ ID NO: 90 (antibody, listed as Rattus norvegicus, V domains shown)
VH: EVQLTESGPGLVQPSQTLSLTCTVSGFSLTSNGVSWVRQPPGKGLEWIAAISSGGNIYYNSVLKSRLSISRDTSKSQVFLKMSSVQTEDTAIYFCTRERGWNYPFITNGYYFDYWGQGVMVTVSS
VL: EIMLTQSPSLLSASVGDRVTLSCKAGQNINNYLAWYQQKLGEAPKLLIYNANSLQTGIPSRFSGSGSGTDYTLTISSLQPEDVATYFCQQYNSWYTFGAGTKLEIK
B3: C1.861.hu11: humanized anti-ABCC1 antibody, VH SEQ ID NO: 33, VL SEQ ID NO: 110 (antibody, V domains shown)
VH: EVQLQESGPGLVKPSETLSLTCTVSGFSLTSNGVTWVRQPPGKGLEWIAAISSGGNIYYNSAVKSRLTISRDTSKNQVSLKLSSVTAADTAVYYCTRARGTTTAYVMDAWGQGTTVTVSS
VL: DVQLTQSPSSLSASVGDRVTITCKSSQSLLYSGNQKNYLAWYQQKPGKSPKLLIYWASTRQSGVPSRFSGSGSGTDFTLTISSLQPEDVATYYCQQYYDVLMNMFGGGTKLEIK
modifications: humanized sequence
B4: C1.861.hu21: humanized anti-ABCC1 antibody, VH SEQ ID NO: 34, VL SEQ ID NO: 110 (antibody, V domains shown)
VH: EVQLVESGGGLIQPGGSLRLSCAVSGFSLTSNGVTWVRQPPGKGLEWIAAISSGGNIYYNSAVKSRLTISRDTSKNTVYLQMNSLRAEDTAVYFCTRARGTTTAYVMDAWGQGTTVTVSS
VL: B3 VL
modifications: humanized sequence
B5: C1.844.hu21: humanized anti-ABCC1 antibody, VH SEQ ID NO: 32, VL SEQ ID NO: 109 (antibody, V domains shown)
VH: B4 VH with T35I, A62G, V63L, F94Y, T115L
VL: DIVMTQSPDSLAVSLGERATINCKSSQSLLYSVNQKNYLAWYQQKPGQSPKLLIYWASTRQSGVPDRFSGSGSGTDFTLTISSLQAEDVAVYYCQQYYDTLMKMFGAGTKLELK
modifications: humanized sequence
B6: C1.831.hu11: humanized anti-ABCC1 antibody, VH SEQ ID NO: 29, VL SEQ ID NO: 108 (antibody, V domains shown)
VH: EVQLQESGPGLVKPSETLSLTCTVSGFSLTSNGVSWVRQPPGKGLEWIAAISSGGNIYYNSVLKSRLTISRDTSKNQVSLKLSSVTAADTAVYYCTRERGWNYPFITNGYYFDYWGQGTLVTVSS
VL: B2 VL with E1D, M3Q, L10S, L21I, S22T, L40P, E42K, V83F, F87Y, A99Q
modifications: humanized sequence
B7: C1.851.hu12: humanized anti-ABCC1 antibody, VH SEQ ID NO: 27, VL SEQ ID NO: 105 (antibody, V domains shown)
VH: EVQLQESGPGLVKPSETLSLTCTVSGFSLTNNGVSWIRQPPGKGLEWIAAISSGGNIYYNSAFKSRLTISRDTSKNQVSLKLSSVTAADTAVYYCARHRGYYGYNWGYFDYWGQGTLVTVSS
VL: DIQLTQSPSSLSASVGDRVTITCKGSQNINNYLAWYQQKPGKAPKLLIYKTNSLQTGIPSRFSGSGSGTDYTLTISSLQPEDFATYYCYQYNNGYTFGQGTKLEIK
modifications: humanized sequence
B8: C1.851.hu14: humanized anti-ABCC1 antibody, VH SEQ ID NO: 27, VL printed as SEQ ID NO: 76, LCDR3 SEQ ID NO: 148 (antibody, V domains shown)
VH: B7 VH
VL: DVVMTQTPLSLPVSLGDQASISCRSSQSIVHSNGNTYLEWYLQKPGQSPKLLIYKVSNRFSGVPDRFSGSGTGTDFTLKISRVEAEDLGVYYCFQGSHVPRTFGGGTKLEIK
modifications: humanized sequence; Mus musculus or humanized sequence
B9: C1.851.hu15: humanized anti-ABCC1 antibody, VH SEQ ID NO: 27, VL printed as SEQ ID NO: 77, LCDR3 SEQ ID NO: 149 (antibody, V domains shown)
VH: B7 VH
VL: DVVMTQAPSSLSASLGERISLTCRASQDIYGSLNWFQQKPDGTIKLLIYGTSSLDSGVPKRFSGSRSGSDYSLTISSLESEDFADYYCLQYASSPYTFGGGTKLEIK
modifications: humanized sequence; Mus musculus or humanized sequence

The molecules below were run on CT26 tumor (assay: CT26 syngeneic mouse tumor model). Settings: CT26, antibody 3 mg/kg + Doxorubicin 2 mg/kg.
Assay type: in vivo
Procedure: Syngeneic models are allografts immortalized from mouse cancer cell lines, which are then grafted back into the same inbred immunocompetent mouse strain. CT26 is an N-nitroso-N-methylurethane-(NNMU) induced undifferentiated fibroblastic colon carcinoma cell line established from BALB/c mice with aggressive colon carcinoma. C26 cells were purchased from ATCC® (CRL-2638™) and maintained in RPMI-1640 medium supplemented with 10% FBS and 1% penicillin, 1% streptomycin at 37° C., 5% CO2. Cell lines used were authentic and confirmed to be mycoplasma negative. The cells are adherent with a fibroblast morphology and will form tumors and metastases post implantation into syngeneic BALB/c mice or immunocompromised mice.
1×10^6 cells diluted inPBS:Matrigel (1:1) were subcutaneously implanted using a 27G insulin syringe into anesthetized […] old female Balb/c mice under aseptic conditions. All animal maintenance, handling, surveillance, and animal procedures were performed in accordance with an approval from the APLAC protocol.
Once tumors reached 100-150 mm^3, mice were randomized into 6 groups of five mice each: • 1. Control isotype 3 mg/kg, • 2. Control isotype 3 mg/kg+Doxorubicin 2 mg/kg • 3. KNJY C1-831 3 mg/kg • 4. KNJY C1-831 3 mg/kg+Doxorubicin • 5. KNJY C1-787A 3 mg/kg • 6. KNJY C1-787A 3 mg/kg+Doxorubicin 2 mg/kg.
Doxorubicin is soluble in water. All test articles were dosed intraperitoneally twice a week for two consecutive weeks. Antibodies were dosed 4 hr prior to Doxorubicin.
Tumors were measured three times a week using a calibrated Vernier Caliper and tumor volume calculated as per the formula ½*L*S*S, where L is the long axis and S is the short axis of the tumor. Body weights were recorded before treatment started and were continuously monitored throughout the study. Animals were euthanized when turning moribund according to the above-mentioned predefined criteria rapid weight loss, loss of ability to ambulate, labored respiration, or inability to drink or feed to avoid animal suffering.

Molecule	effect of doxorubicin on the inhibition of tumor growth by the antibody
B1	enhanced by doxorubicin
B2	enhanced by doxorubicin

Same assay, conditions: CT26 in BALB/c mice, antibody 3 mg/kg intraperitoneally twice a week for two weeks

Molecule	tumor growth in vivo
B1	inhibit tumor growth
B2	inhibit tumor growth

Each molecule was assayed against T1, human ABCC1 (Homo sapiens, UniProt P33527) (assay: ABCC1 efflux assay in HEK293T cells expressing human ABCC1). Settings: HEK293T cells expressing human ABCC1, Calcein AM fluorescence.
T1 sequence (P33527 whole entry): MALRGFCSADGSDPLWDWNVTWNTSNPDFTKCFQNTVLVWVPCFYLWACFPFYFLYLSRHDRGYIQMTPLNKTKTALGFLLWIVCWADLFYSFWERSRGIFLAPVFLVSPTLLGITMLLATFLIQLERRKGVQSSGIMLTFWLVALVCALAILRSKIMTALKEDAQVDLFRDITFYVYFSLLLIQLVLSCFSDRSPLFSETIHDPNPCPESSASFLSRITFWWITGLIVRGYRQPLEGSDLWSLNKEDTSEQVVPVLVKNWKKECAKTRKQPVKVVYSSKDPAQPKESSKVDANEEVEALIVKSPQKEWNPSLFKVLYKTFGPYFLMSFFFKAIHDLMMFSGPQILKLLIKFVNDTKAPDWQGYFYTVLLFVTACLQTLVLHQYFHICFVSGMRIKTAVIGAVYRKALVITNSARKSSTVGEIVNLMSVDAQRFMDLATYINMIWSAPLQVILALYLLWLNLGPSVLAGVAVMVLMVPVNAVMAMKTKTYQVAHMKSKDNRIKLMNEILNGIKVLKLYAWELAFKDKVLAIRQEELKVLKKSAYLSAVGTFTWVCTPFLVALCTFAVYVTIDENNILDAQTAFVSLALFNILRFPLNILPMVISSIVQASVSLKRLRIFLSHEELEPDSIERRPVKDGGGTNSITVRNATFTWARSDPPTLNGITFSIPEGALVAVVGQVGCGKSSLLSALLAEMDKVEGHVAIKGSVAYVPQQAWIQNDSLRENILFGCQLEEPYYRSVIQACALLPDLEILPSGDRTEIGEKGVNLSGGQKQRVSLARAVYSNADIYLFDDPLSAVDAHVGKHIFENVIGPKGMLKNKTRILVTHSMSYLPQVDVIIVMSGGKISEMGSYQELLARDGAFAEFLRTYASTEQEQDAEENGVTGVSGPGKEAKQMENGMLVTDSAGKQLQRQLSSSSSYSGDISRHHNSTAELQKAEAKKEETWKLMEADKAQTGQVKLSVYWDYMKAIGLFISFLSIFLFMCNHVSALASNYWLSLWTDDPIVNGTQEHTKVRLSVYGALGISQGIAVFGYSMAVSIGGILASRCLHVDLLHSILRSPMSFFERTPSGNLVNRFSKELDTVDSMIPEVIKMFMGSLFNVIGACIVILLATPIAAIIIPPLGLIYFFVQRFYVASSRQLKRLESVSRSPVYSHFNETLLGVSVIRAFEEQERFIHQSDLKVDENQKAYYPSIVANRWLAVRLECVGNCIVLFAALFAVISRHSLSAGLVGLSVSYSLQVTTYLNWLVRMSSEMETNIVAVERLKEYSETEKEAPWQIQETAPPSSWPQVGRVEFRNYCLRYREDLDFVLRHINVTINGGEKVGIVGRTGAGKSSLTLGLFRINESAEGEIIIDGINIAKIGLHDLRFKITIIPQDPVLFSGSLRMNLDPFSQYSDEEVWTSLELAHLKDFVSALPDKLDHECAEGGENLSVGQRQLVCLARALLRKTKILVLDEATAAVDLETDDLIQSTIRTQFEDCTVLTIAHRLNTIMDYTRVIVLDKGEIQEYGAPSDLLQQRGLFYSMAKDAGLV
Assay type: cell-based
Parameters: expressed in transfected cells; host or cells: 293T (HEK 293T) cells
Procedure: HEK 293T cells expressing human ABCC1 were washed several times and aliquoted into 96-well plates as 50 μl aliquots/well at a cell density of 1×10^6 cells per ml in phenol red-free DMEM. Cells were mixed with 50 μl antibodies and incubated for 1.5 h at 37° C. The cells were then washed twice and finally resuspended in […] PBS. Calcein AM fluorescence was measured by flow cytometry.

Molecule	inhibition of the efflux function of the ABCC1 transporter
B3	significantly inhibit the efflux function
B4	significantly inhibit the efflux function
B5	significantly inhibit the efflux function
B6	significantly inhibit the efflux function

The molecules below were run against T1, human ABCC1 (assay: Titration binding assay of humanized antibodies (FIGS. 8A-8C), human ABCC1). Settings: cell line not stated.
Parameters: expressed in transfected cells; host or cells: 293T (HEK 293T) cells
Procedure: (§1) Binding titration of recombinant antibodies to KPC1 transfectants was performed by serial dilution of antibodies from about 666 nM, Diluted antibody in flow cytometry buffer was incubated with cells on ice for 30 min. After 2 washes with flow cytometry buffer, bound antibody was detected with PE-labeled F(ab′)2 fragment goat anti-human IgG (Jackson ImmunoResearch) diluted 1:200 in flow cytometry buffer and incubated with cells for 20 min on ice. After 2 washes with flow cytometry buffer fluorescence was measured on an Attune NxT flow cytometer. Data were analyzed with GraphPad Prism 8.0 software to determine EC50's.

binding to human ABCC1 in the titration binding assay	Molecule
bind both human and cynomolgus ABCC1	B3
bind both human and cynomolgus ABCC1	B4
bind both human and cynomolgus ABCC1	B5
bind both human and cynomolgus ABCC1	B6

These molecules were tested against T2, cynomolgus ABCC1 (Macaca fascicularis, UniProt Q864R9) (assay: Titration binding assay of humanized antibodies (FIGS. 8A-8C), cynomolgus ABCC1). Settings: cell line not stated.
T2 sequence (Q864R9 whole entry): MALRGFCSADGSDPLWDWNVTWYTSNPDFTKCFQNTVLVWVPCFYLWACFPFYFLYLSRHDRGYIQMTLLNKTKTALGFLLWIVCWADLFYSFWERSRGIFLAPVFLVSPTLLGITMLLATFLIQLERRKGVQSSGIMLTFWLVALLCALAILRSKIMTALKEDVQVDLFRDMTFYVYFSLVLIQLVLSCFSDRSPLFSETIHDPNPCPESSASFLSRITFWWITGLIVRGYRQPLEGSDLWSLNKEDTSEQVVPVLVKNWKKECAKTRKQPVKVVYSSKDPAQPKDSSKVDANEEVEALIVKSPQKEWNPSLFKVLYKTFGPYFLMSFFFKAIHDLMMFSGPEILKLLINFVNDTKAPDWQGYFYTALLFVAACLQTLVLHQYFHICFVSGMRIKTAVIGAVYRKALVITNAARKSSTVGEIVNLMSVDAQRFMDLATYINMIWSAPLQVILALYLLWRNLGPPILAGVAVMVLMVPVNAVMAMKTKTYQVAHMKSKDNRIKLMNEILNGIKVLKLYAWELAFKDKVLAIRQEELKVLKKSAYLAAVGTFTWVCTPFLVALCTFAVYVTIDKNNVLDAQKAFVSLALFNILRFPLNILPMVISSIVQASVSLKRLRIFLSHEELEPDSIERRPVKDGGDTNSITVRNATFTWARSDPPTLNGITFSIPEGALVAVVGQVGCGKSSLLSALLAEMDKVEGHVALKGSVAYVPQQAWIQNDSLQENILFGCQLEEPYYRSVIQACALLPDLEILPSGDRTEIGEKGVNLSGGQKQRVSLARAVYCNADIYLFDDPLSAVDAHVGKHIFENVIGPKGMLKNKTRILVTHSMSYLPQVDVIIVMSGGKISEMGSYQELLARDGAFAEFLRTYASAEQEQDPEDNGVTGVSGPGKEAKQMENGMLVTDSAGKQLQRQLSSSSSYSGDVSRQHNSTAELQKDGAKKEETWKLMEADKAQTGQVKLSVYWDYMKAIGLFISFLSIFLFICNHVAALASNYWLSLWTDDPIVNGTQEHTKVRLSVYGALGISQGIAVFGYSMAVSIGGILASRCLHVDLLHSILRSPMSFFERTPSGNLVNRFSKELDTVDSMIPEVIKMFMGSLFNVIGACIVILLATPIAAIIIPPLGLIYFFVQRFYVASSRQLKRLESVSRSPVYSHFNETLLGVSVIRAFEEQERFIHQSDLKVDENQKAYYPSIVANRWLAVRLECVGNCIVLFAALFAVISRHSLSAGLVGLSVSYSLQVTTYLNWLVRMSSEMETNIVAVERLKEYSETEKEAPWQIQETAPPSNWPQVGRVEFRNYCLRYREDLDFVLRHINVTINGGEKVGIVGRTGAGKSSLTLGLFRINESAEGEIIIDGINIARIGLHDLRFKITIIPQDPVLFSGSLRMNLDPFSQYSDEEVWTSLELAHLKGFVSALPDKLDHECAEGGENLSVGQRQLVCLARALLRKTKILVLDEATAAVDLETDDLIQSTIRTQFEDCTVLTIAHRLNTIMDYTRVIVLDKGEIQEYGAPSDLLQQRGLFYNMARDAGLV
Parameters: expressed in transfected cells; host or cells: 293T cells
Procedure: as §1

binding to cynomolgus ABCC1 in the titration binding assay	Molecule
bind both human and cynomolgus ABCC1	B3
bind both human and cynomolgus ABCC1	B4
bind both human and cynomolgus ABCC1	B5
bind both human and cynomolgus ABCC1	B6

What follows are molecules tested against T1, human ABCC1 (assay: Titration binding to human ABCC1-overexpressing rat C6 glioma cells (FACS)). Settings: not given.
Parameters: expressed in transfected cells

Molecule	binding to C6 cells overexpressing human ABCC1
B7	retain the ability to bind both human and cynomolgus ABCC1
B8	retain the ability to bind both human and cynomolgus ABCC1
B9	retain the ability to bind both human and cynomolgus ABCC1

These molecules were tested against T2, cynomolgus ABCC1 (assay: Titration binding to cynomolgus ABCC1-overexpressing rat C6 glioma cells (FACS)). Settings: not given.
Parameters: expressed in transfected cells

Molecule	binding to C6 cells overexpressing cynomolgus ABCC1
B7	retain the ability to bind both human and cynomolgus ABCC1
B8	retain the ability to bind both human and cynomolgus ABCC1
B9	retain the ability to bind both human and cynomolgus ABCC1

From patent US20230272117A1, “ANTI ABCC1 ANTIBODIES AND USES THEREOF” (Kenjockety Biotechnology, Inc., priority 2020, published 2023)
